B1: Three-prime repair exonuclease 1 (Homo sapiens), Q9NSU2-1 (parent)
chain: MGPGARRQGRIVQGRPEMCFCPPPTPLPPLRILTLGTHTPTPCSSPGSAAGTYPTMGSQALPPGPMQTLIFFDMEATGLPFSQPKVTELCLLAVHRCALESPPTSQGPPPTVPPPPRVVDKLSLCVAPGKACSPAASEITGLSTAVLAAHGRQCFDDNLANLLLAFLRRQPQPWCLVAHNGDRYDFPLLQAELAMLGLTSALDGAFCVDSITALKALERASSPSEHGPRKSYSLGSIYTRLYGQSPPDSHTAEGDVLALLSICQWRPQALLRWVDAHARPFGTIRPMYGVTASARTKPRPSAVTTTAHLATTRNTSPSLGESRGTKDLPPVKDPGALSREGLLAPLGLLAILTLAVATLYGLSLATPGE
partner: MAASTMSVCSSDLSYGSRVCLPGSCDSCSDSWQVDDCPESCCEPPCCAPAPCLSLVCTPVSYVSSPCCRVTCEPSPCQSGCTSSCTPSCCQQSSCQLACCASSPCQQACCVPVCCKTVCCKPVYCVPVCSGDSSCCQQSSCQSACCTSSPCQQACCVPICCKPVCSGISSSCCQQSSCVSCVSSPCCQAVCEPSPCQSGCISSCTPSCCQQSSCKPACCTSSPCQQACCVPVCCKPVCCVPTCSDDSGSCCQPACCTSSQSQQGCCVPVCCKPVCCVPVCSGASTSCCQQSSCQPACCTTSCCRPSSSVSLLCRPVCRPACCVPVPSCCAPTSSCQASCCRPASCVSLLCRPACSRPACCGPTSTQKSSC
B2: Inactive peptidyl-prolyl cis-trans isomerase FKBP6 (Homo sapiens), O75344 (parent)
chain: MGGSALNQGVLEGDDAPGQSLYERLSQRMLDISGDRGVLKDVIREGAGDLVAPDASVLVKYSGYLEHMDRPFDSNYFRKTPRLMKLGEDITLWGMELGLLSMRRGELARFLFKPNYAYGTLGCPPLIPPNTTVLFEIELLDFLDCAESDKFCALSAEQQDQFPLQKVLKVAATEREFGNYLFRQNRFYDAKVRYKRALLLLRRRSAPPEEQHLVEAAKLPVLLNLSFTYLKLDRPTIALCYGEQALIIDQKNAKALFRCGQACLLLTEYQKARDFLVRAQKEQPFNHDINNELKKLASCYRDYVDKEKEMWHRMFAPCGDGSTAGES
partner: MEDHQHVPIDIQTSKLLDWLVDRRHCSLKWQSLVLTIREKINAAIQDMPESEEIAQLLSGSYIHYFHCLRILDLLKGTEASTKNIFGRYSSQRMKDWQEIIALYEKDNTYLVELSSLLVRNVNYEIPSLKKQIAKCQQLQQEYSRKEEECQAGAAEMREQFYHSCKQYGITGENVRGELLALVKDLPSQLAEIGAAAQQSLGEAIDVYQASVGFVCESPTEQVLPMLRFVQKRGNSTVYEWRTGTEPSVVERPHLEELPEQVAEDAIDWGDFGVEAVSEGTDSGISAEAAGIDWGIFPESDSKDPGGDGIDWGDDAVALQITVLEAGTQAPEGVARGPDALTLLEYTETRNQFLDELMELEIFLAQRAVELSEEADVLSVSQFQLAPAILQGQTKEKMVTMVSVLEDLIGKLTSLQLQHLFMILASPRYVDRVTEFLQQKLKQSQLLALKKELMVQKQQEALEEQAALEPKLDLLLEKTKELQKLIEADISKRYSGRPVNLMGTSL
B3: Polyunsaturated fatty acid 5-lipoxygenase (Homo sapiens), P09917 (parent)
chain: MPSYTVTVATGSQWFAGTDDYIYLSLVGSAGCSEKHLLDKPFYNDFERGAVDSYDVTVDEELGEIQLVRIEKRKYWLNDDWYLKYITLKTPHGDYIEFPCYRWITGDVEVVLRDGRAKLARDDQIHILKQHRRKELETRQKQYRWMEWNPGFPLSIDAKCHKDLPRDIQFDSEKGVDFVLNYSKAMENLFINRFMHMFQSSWNDFADFEKIFVKISNTISERVMNHWQEDLMFGYQFLNGCNPVLIRRCTELPEKLPVTTEMVECSLERQLSLEQEVQQGNIFIVDFELLDGIDANKTDPCTLQFLAAPICLLYKNLANKIVPIAIQLNQIPGDENPIFLPSDAKYDWLLAKIWVRSSDFHVHQTITHLLRTHLVSEVFGIAMYRQLPAVHPIFKLLVAHVRFTIAINTKAREQLICECGLFDKANATGGGGHVQMVQRAMKDLTYASLCFPEAIKARGMESKEDIPYYFYRDDGLLVWEAIRTFTAEVVDIYYEGDQVVEEDPELQDFVNDVYVYGMRGRKSSGFPKSVKSREQLSEYLTVVIFTASAQHAAVNFGQYDWCSWIPNAPPTMRAPPPTAKGVVTIEQIVDTLPDRGRSCWHLGAVWALSQFQENELFLGMYPEEHFIEKPVKEAMARFRKNLEAIVSVIAERNKKKQLPYYYLSPDRIPNSVAI
B4: Krev interaction trapped protein 1 (Homo sapiens), O00522 (parent)
chain: MGNPENIEDAYVAVIRPKNTASLNSREYRAKSYEILLHEVPIEGQKKKRKKVLLETKLQGNSEITQGILDYVVETTKPISPANQGIRGKRVVLMKKFPLDGEKMGREASLFIVPSVVKDNTKYTYTPGCPIFYCLQDIMRVCSESSTHFATLTARMLIALDKWLDERHAQSHFIPALFRPSPLERIKTNVINPAYATESGQTENSLHMGYSALEIKSKMLALEKADTCIYNPLFGSDLQYTNRVDKVVINPYFGLGAPDYSKIQIPKQEKWQRSMSSVTEDKERQWVDDFPLHRSACEGDSELLSRLLSERFSVNQLDSDHWAPIHYACWYGKVEATRILLEKGKCNPNLLNGQLSSPLHFAAGGGHAEIVQILLNHPETDRHITDQQGRSPLNICEENKQNNWEEAAKLLKEAINKPYEKVRIYRMDGSYRSVELKHGNNTTVQQIMEGMRLSQETQQYFTIWICSENLSLQLKPYHKPLQHVRDWPEILAELTNLDPQRETPQLFLRRDVRLPLEVEKQIEDPLAILILFDEARYNLLKGFYTAPDAKLITLASLLLQIVYGNYESKKHKQGFLNEENLKSIVPVTKLKSKAPHWTNRILHEYKNLSTSEGVSKEMHHLQRMFLQNCWEIPTYGAAFFTGQIFTKASPSNHKVIPVYVGVNIKGLHLLNMETKALLISLKYGCFMWQLGDTDTCFQIHSMENKMSFIVHTKQAGLVVKLLMKLNGQLMPTERNS
partner: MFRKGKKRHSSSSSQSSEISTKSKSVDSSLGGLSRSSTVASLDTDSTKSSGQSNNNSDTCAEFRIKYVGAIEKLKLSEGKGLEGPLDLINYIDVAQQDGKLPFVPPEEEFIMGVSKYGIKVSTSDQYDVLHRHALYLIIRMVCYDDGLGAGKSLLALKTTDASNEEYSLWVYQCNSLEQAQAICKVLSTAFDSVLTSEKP
B5: U4/U6 small nuclear ribonucleoprotein Prp31 (Homo sapiens), Q8WWY3 (parent)
chain: MSLADELLADLEEAAEEEEGGSYGEEEEEPAIEDVQEETQLDLSGDSVKTIAKLWDSKMFAEIMMKIEEYISKQAKASEVMGPVEAAPEYRVIVDANNLTVEIENELNIIHKFIRDKYSKRFPELESLVPNALDYIRTVKELGNSLDKCKNNENLQQILTNATIMVVSVTASTTQGQQLSEEELERLEEACDMALELNASKHRIYEYVESRMSFIAPNLSIIIGASTAAKIMGVAGGLTNLSKMPACNIMLLGAQRKTLSGFSSTSVLPHTGYIYHSDIVQSLPPDLRRKAARLVAAKCTLAARVDSFHESTEGKVGYELKDEIERKFDKWQEPPPVKQVKPLPAPLDGQRKKRGGRRYRKMKERLGLTEIRKQANRMSFGEIEEDAYQEDLGFSLGHLGKSGSGRVRQTQVNEATKARISKTLQRTLQKQSVVYGGKSTIRDRSSGTASSVAFTPLQGLEIVNPQAAEKKVAEANQKYFSSMAEFLKVKGEKSGLMST
partner: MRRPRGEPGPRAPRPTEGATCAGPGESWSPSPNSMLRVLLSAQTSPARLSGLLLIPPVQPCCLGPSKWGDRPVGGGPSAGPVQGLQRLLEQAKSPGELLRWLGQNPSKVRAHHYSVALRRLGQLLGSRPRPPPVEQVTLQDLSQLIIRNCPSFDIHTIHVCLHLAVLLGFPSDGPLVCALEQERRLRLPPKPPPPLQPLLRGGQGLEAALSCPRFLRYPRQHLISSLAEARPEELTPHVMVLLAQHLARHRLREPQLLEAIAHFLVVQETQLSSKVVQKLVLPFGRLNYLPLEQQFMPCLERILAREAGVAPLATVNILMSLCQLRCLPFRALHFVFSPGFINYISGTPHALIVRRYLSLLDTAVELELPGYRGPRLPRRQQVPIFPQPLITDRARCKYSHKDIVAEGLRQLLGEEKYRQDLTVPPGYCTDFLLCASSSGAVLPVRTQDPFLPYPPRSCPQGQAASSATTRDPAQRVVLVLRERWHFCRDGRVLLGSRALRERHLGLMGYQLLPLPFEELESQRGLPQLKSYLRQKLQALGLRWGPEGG

Variants of: B1
Conditions: with kr107_human KRTAP10-7, P60409

Q: Which “effect of a mutation on the interaction” value does the source give for A213V here?
A: The value was “with no effect”.

Q: For R169H, which “effect of a mutation on the interaction” value is on record?
A: Its value is “with no effect”.

Q: How did the “effect of a mutation on the interaction” value turn out when G361A was run?
A: Its value is “with no effect”.

Variants of: B2
Conditions: with ck5p3_human CDK5RAP3, Q96JB5

Q: R202H was tested. Which “effect of a mutation on the interaction” value did it give?
A: Its value is “with no effect”.

Q: With F72L as the variant, how does the “effect of a mutation on the interaction” value read?
A: Its value is “disrupting interaction strength”.

Variants of: B3
Conditions: with md1l1_human MAD1L1, Q9Y6D9
Sequence of md1l1_human MAD1L1, Q9Y6D9 (Q9Y6D9 whole entry): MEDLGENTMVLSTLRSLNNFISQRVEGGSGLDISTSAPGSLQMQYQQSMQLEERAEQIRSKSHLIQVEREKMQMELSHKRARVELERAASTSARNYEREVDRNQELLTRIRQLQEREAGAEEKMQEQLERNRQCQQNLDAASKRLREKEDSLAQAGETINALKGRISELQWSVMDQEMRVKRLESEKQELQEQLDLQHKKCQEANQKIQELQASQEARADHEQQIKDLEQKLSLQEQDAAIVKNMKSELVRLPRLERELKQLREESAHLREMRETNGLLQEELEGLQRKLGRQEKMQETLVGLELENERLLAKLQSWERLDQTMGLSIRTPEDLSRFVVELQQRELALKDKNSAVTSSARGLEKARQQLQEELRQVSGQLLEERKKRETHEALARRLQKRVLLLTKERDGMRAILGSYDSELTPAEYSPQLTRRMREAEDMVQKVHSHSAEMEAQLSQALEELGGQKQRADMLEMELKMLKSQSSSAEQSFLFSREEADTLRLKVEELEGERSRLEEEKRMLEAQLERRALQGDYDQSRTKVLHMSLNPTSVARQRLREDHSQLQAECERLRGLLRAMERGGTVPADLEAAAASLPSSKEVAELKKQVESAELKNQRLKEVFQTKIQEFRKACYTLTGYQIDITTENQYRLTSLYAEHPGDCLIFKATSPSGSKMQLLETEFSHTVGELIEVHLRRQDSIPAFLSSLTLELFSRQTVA

Q: With E254K as the variant, how does the “effect of a mutation on the interaction” value read?
A: Its value is “with no effect”.

Variants of: B3
Conditions: with hipl2_human HHIPL2, Q6UWX4
Sequence of hipl2_human HHIPL2, Q6UWX4 (Q6UWX4 whole entry): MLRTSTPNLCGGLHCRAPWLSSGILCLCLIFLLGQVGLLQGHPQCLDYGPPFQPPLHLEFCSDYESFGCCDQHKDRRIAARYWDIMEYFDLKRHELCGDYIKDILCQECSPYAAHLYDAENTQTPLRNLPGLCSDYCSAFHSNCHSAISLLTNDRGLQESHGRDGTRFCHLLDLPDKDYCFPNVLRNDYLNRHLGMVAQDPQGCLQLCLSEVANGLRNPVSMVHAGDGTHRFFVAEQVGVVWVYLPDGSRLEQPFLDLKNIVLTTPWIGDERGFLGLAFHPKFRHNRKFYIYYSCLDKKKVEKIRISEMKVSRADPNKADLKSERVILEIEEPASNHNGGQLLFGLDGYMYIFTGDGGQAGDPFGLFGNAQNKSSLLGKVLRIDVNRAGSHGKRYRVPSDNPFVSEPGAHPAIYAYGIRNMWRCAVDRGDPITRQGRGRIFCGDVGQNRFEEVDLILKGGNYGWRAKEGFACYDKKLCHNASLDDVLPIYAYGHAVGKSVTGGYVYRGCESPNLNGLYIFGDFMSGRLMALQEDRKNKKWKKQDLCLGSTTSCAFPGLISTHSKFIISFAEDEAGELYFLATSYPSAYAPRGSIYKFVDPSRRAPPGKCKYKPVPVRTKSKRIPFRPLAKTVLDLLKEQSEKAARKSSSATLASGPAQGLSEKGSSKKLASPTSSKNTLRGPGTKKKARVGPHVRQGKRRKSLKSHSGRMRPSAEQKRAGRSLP

Q: With E254K as the variant, how does the “effect of a mutation on the interaction” value read?
A: The value was “with no effect”.

Variants of: B3
Conditions: with syce1_human SYCE1, Q8N0S2
Sequence of syce1_human SYCE1, Q8N0S2 (Q8N0S2 whole entry): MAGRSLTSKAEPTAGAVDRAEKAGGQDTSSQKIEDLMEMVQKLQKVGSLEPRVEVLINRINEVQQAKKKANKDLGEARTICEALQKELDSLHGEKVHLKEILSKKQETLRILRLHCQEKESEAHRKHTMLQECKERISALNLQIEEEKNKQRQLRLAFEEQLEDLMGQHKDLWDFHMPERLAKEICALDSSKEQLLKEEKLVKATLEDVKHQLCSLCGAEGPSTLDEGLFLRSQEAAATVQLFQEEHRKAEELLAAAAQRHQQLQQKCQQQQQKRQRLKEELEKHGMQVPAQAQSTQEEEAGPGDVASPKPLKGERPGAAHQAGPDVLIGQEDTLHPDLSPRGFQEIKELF

Q: Which “effect of a mutation on the interaction” value does the source give for E254K here?
A: The value was “with no effect”.

Variants of: B4
Conditions: with itbp1_human ITGB1BP1, O14713

Q: For D137G, which “effect of a mutation on the interaction” value is on record?
A: Its value is “with no effect”.

Variants of: B5
Conditions: with fastk_human FASTK

Q: For L107V, which “effect of a mutation on the interaction” value is on record?
A: The value was “with no effect”.
